In article PMC9741242, “Insights into the Structure of the Highly Glycosylated Ffase from Rhodotorula dairenensis Enhance Its Biotechnological Potential” (International Journal of Molecular Sciences, 2022):

Substrate: OC[C@H]1O[C@@](CO)(O[C@H]2O[C@H](CO)[C@@H](O)[C@H](O)[C@H]2O)[C@@H](O)[C@@H]1O
Assay: DNS reducing sugar assay, Michaelis-Menten fit
Format: biochemical, Rhodotorula dairenensis
Conditions: 50 mM sodium phosphate pH 5.5, 60 °C, sucrose 1-200 mM
From the text: DNS reducing sugar assay, Michaelis-Menten fit on RdINVΔ21–139

B1: RdINVΔ21–139 (Rhodotorula dairenensis) (protein)
chain: SSSCAPTSLPASATELPTTVPTGTVITGDYTGSYRPQVHYSPPKGFMNDPNGCHRDRNGTYHLYYQYNPLEYVAGNQHWGHATSDDLYHWTNQPIAIFPPNSTSQVFSGSAVLDPNNTSGFFPNTTDGVVAVYTLNTPTLQVQEVAYSTDGGYNFTPYENNPVLSVGSNQFRDPKVFWYEDHWVMAVAAANDFTIEIYTSPNLTSWTFASNFTHHGLLGLAYECPNLVQVPFQDDPSKSAWLMYISINPGAPLGGSVGQYFPGDFNGTHFVAYDSAARIADFAKDNYASQWFADTENGESISIAWASNWQYTQQVPTSAQAFRSAMSLPRRNYLTNITRLGWDLVSLPYDLSPVVGPSLLSSSEANSTADVDFTNVTSNAVWFSLNVTLPDAAIQNASLISADASINITFLPSTKCSSSSGSGSDSPAATLTYFYAGLTNGALALTRPAASSSWGAENPFFTDKFSYTLVDPLTSLVGVFDRSMLEVFVNEGAHSATMLVFPDSPVGSMKVATGGLPEGTQVNLQVNGLESTWQSS
notes: truncated: residues 21-139 deleted after the signal peptide (residues 140-675 remain); secreted by Komagataella phaffii, glycosylated, ~100 kDa; homodimer; deglycosylated for crystals
  Km: 9 ± 1 mM
  kcat: 16400 ± 216 s⁻¹
  kcat/Km: 1.781e+06 ± 16000 M⁻¹ s⁻¹
